The numbers were not newly measured in publication PMC3429939, which cites them from elsewhere.

This data set deals with galectin-1 CRD (Homo sapiens) (UniProt P09382).

On to galectin-1 CRD (from UniProt P09382), for which the Kd is 7 µM.
